From the supplement of paper PMC10724198
± gives the standard deviation of the averaged measurements.

The sequences below were run on Saccharomyces cerevisiae (assay: protein stability index of tFT-peptide fusion (C-terminal peptide) (PSI (0-1 scale)); higher = more stable (slower turnover)). Settings: genetic background: wild type; temperature: 30 C.
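Note: PSI is a weighted mean of sequencing reads over stability bins, variants kept only with over 10 reads, mCherry proximal and sfGFP distal, peptide attached via GGGS linker.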

| Sequence | protein stability index |
| --- | --- |
| LESLWEAIRTLF | 0.5136 ± 0.005 |
| LFAKVVSGYDLG | 0.711 ± 0.024 |
| LFALRLLSREGI | 0.604 ± 0.046 |
| LFDGPFPHLFPT | 0.718 ± 0.091 |
| LFELVRTCDRCV | 0.7 ± 0.03 |
| LFFLLPSSPIGF | 0.705 ± 0.011 |
| LFFLPSSSLSPL | 0.731 ± 0.022 |
| LFFRFGRWFLGF | 0.671 ± 0.027 |
| LFGHMENNLLKS | 0.722 ± 0.046 |
| LFGQTVLLSAGT | 0.713 ± 0.018 |
| LFHFLSPVALPS | 0.6649 ± 0.0041 |
| LFITTSLFRPFA | 0.53 ± 0.015 |
| LFLPDPHSLTFH | 0.744 ± 0.044 |
| LFLSLFLFPSLS | 0.57 ± 0.03 |
| LFLYPFCVGGFL | 0.714 ± 0.016 |
| LFPLHLPSPPPG | 0.7207 ± 0.0018 |
| LFPLISPLQSER | 0.737 ± 0.026 |
| LFPVTSLFPPLP | 0.706 ± 0.012 |
| LFSSSLISPLFA | 0.582 ± 0.025 |
| LFTLFPPFFYSR | 0.681 ± 0.0079 |
| LFVGCRDPLCGV | 0.723 ± 0.00029 |
| LFVMGSACPLRI | 0.681 ± 0.029 |
| LFVPAASRLAFS | 0.686 ± 0.011 |
| LFVSGVPRSWDR | 0.707 ± 0.19 |
| LGAAMRSAVEAA | 0.64 ± 0.013 |
| LGCGVSLWVVPG | 0.712 ± 0.034 |

| Sequence | protein stability index |
| --- | --- |
| LGCSVGESVGAG | 0.68 ± 0.03 |
| LGFNRRSKTRMI | 0.704 ± 0.014 |
| LGGARWSGLPHV | 0.707 ± 0.085 |
| LGGGAGAGYWVG | 0.741 ± 0.032 |
| LGGGAGLRCGGF | 0.673 ± 0.02 |
| LGGGARGSGGGA | 0.727 ± 0.028 |
| LGGGGKNGSERV | 0.696 ± 0.017 |
| LGGRTWTLVRSG | 0.64 ± 0.033 |
| LGGVLSRQPYSE | 0.643 ± 0.014 |
| LGGVRRRDWQEG | 0.677 ± 0.016 |
| LGIVSLDWLWLR | 0.513 ± 0.043 |
| LGKSRVHLWTGT | 0.706 ± 0.04 |
| LGLFECAFLDRS | 0.736 ± 0.013 |
| LGLPISREASVG | 0.637 ± 0.011 |
| LGLWSSVFGSSL | 0.743 ± 0.018 |
| LGPAPFSPPPPL | 0.738 ± 0.041 |
| LGPLPHDGFSMF | 0.761 ± 0.011 |
| LGPPPPPASVCR | 0.647 ± 0.012 |
| LGPRRPGQSGSR | 0.712 ± 0.011 |
| LGPSTCPCEVQS | 0.677 ± 0.015 |
| LGRGRGGCLGEL | 0.5915 ± 0.0034 |
| LGRNLGKDPVEV | 0.593 ± 0.11 |
| LGRNTVIGLCLE | 0.642 ± 0.1 |
| LGRRVGWEVSGE | 0.687 ± 0.024 |
| LGSSTGSVESLS | 0.737 ± 0.048 |
| LGTETASSGFSG | 0.691 ± 0.029 |

| Sequence | protein stability index |
| --- | --- |
| LGTLLWWGAGRG | 0.708 ± 0.02 |
| LGVAFCAPRLFY | 0.743 ± 0.023 |
| LGVDFCRGVVVE | 0.654 ± 0.035 |
| LGVGGRWVVPGA | 0.722 ± 0.032 |
| LGVGSVGAKCGS | 0.639 ± 0.0071 |
| LGVVGYGLGGGK | 0.707 ± 0.0096 |
| LHAGWNLISSRL | 0.633 ± 0.037 |
| LHAPFPHPPPPP | 0.6713 ± 0.005 |
| LHFGSSSSRDFM | 0.709 ± 0.027 |
| LHPTPPPVLAPP | 0.654 ± 0.12 |
| LHRFPMISLLGP | 0.699 ± 0.018 |
| LICRRVRLSMRG | 0.571 ± 0.028 |
| LILLTIQSQPPV | 0.622 ± 0.0018 |
| LIPRCLIPVTRY | 0.655 ± 0.018 |
| LIQSDKTPRTTR | 0.696 ± 0.012 |
| LIVIGGGAVNGV | 0.63 ± 0.069 |
| LIWGRGGSRTGG | 0.747 ± 0.062 |
| LKDQFKNKNKSS | 0.531 ± 0.04 |
| LKELDTGVEQDE | 0.671 ± 0.0096 |
| LKIDTCSQQEEN | 0.675 ± 0.11 |
| LKKKKNKKQKTE | 0.6152 ± 0.0053 |
| LKLQGGCLETGA | 0.602 ± 0.015 |
| LKNVKFTNNRKK | 0.694 ± 0.014 |
| LKQHDSNESASR | 0.6565 ± 0.001 |
| LKTGTAAGVKDH | 0.684 ± 0.049 |
| LLAGEDGGVGEE | 0.653 ± 0.057 |

| Sequence | protein stability index |
| --- | --- |
| LLALAPFWVRHK | 0.68 ± 0.011 |
| LLALPFPPSSLF | 0.701 ± 0.054 |
| LLALQCSLFTPH | 0.678 ± 0.15 |
| LLAPPLPPPRHG | 0.674 ± 0.018 |
| LLCSSFSFHCFP | 0.667 ± 0.0068 |
| LLCYSGVIFGSV | 0.59 ± 0.087 |
| LLDEHGKRRKKI | 0.713 ± 0.0011 |
| LLFCFIPCVFWG | 0.5096 ± 0.0029 |
| LLFFSCGGVSSV | 0.657 ± 0.053 |
| LLFFSLFFSPLP | 0.642 ± 0.041 |
| LLFFSSCLDCFV | 0.635 ± 0.026 |
| LLFPPVCRPCLS | 0.605 ± 0.11 |
| LLFSRVDFSSPL | 0.804 ± 0.098 |
| LLFYSVPLSSSF | 0.655 ± 0.072 |
| LLGRSPSPTRPT | 0.65732 ± 0.00035 |
| LLGVGYGSGGWR | 0.633 ± 0.089 |
| LLGVYVRSFGSK | 0.698 ± 0.015 |
| LLHMSRLWYTTF | 0.595 ± 0.022 |
| LLKNPFRGTSVF | 0.737 ± 0.11 |
| LLLFPRFPPPPL | 0.711 ± 0.038 |
| LLLPFVSPPVYS | 0.569 ± 0.031 |
| LLLPSLAPTPTA | 0.654 ± 0.025 |
| LLLSALLLSASP | 0.625 ± 0.0083 |
